# Assay results reported in patent publication US20200323888A1, “INHIBITORS” (VESTLANDETS INNOVASJONSSELSKAP AS, priority 2017, published 2020).
# Primed or numbered codes have the meaning given here. Ac′ = acetamide linker; CoA = coenzyme A
# Target: T1, Naa80 (Homo sapiens, UniProt Q93015)
# T1 construct: The PCR product containing the CDS was inserted into the TOPO TA vector; made in house; host or cells: E. coli BL21 Star (DE3)
# T1 sequence (Q93015 1-308 isoform Q93015-2): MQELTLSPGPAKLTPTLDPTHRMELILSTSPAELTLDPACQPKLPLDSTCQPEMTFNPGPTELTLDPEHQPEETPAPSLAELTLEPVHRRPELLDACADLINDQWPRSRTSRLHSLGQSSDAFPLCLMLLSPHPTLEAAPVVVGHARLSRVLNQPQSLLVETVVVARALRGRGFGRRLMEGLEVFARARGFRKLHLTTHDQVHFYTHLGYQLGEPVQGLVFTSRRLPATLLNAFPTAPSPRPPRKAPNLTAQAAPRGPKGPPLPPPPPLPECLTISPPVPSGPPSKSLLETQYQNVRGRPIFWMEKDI
# Test: Nt-acetylation inhibitor assay for Naa80
# Format: biochemical
# Settings: Naa80
# Method: FIG. 10: (A) IC50 values for inhibitors measured in an Nt-acetylation inhibitor assay for Naa80. (B) Ki-values for CoA-Ac-DDDI-NH2 (SEQ ID NO: 6) for different human NATs measured in an Nt-acetylation inhibitor assay. All reactions were performed at least three times and in triplicate; errors bars represent standard deviation of each measurement.
# The IC50 values for these compounds were tested as described in Foyn H, et al. (2013) “Design, Synthesis, and Kinetic Characterization of Protein N-Terminal Acetyltransferase Inhibitors”. ACS Chem Biol 8:1121-1127; and Foyn H, et al. (2017) “DTNB-Based quantification of in vitro enzymatic N-terminal acetyltransferase activity”, Methods Mol. Biol. 1574:9-15. Briefly, a colorimetric acetylation assay, 5,5′-dithiobis-(2-nitrobenzoic acid) (DTNB) assay was used to measure the catalytic activity of NATs after incubation with NAT inhibitors. In the DTNB assay, thiols present in the enzymatic product, CoA, cleaves DTNB and produces 2-nitro-5-thiobenzoate (NTB-), which absorbs light with a wavelength of 412 nm. NTB- forms in a 1:1 molar ratio to the thiol groups present in the sample. Therefore, NTB- was quantified by measuring the absorbance at 412 nm and indirectly measures peptide Nt-acetylation. […] After 30 min-60 min incubation at 37° C., the enzyme activity was quenched with quenching buffer (3.2 M guanidinium-HCl, 100 mM sodium phosphate dibasic pH 6.8). Triplicates were run for all positive samples, while negative controls were duplicated. As a negative control, reactions without enzyme were incubated at 37° C. before the reaction was quenched and added enzyme. In order to measure CoA production, 2 mM DTNB (dissolved in 100 mM sodium phosphate dibasic pH 6.8 and 10 mM EDTA) was added to the quenched reaction and the absorbance at 412 nm was measured with a spectrophotometer (Epoc). Background absorbance (determined in negative controls) was subtracted from the absorbance determined in each individual reaction. Thiophenolate production was quantified assuming ε=13.7×103 M−1 cm−1. For NatA and NatB enzyme complex inhibition, immunoprecipitation was performed using Naa15 ab (custom made, Arnesen T, Anderson D, Baldersheim C, Lanotte M, Varhaug J E, Lillehaug J R. (2005) Identification and characterization of the human ARD1-NATH protein acetyltransferase complex. Biochemical J 386(Pt 3):433-43.) or Naa20 ab (Nat5, abnova) respectively and protein A/G magnetic agarose beads (Millipore). A similar Nt-acetylation reaction was performed as previously described and the enzymatic activity was quenched with a final concentration of 1% TFA and analyzed by HPLC (Evjenth R, Van Damme P, Gevaert K, Arnesen T (2013) HPLC-based Quantification of in vitro N-terminal Acetylation. Methods Mol Biol 981:95-102.).
# We then pursued Naa80 bisubstrate analogue inhibitors based on the results of the substrate screening and the sequences of the cellular substrates processed β- and γ-actin. We synthesized bisubstrate conjugates of Coenzyme A coupled to the tetrapeptides MDEL-NH2 (SEQ ID NO: 8), DDDI-NH2 (SEQ ID NO: 6), EEEI-NH2 (SEQ
# ID NO: 7), and MLGT-NH2 (SEQ ID NO: 52) via an acetamide (Ac) linker.
# The following additional Naa80 bisubstrate analogue inhibitors were produced and tested as described above: […]
row,Molecule,IC50 [nM]
1,CC(C)C[C@H](NC(=O)[C@H](CCC(=O)O)NC(=O)[C@H](CCC(=O)O)NC(=O)[C@H](CCC(=O)O)NC(=O)CSCCNC(=O)CCNC(=O)C(O)C(C)(C)COP(=O)(O)OP(=O)(O)OCC1OC(n2cnc3c(N)ncnc32)C(O)C1OP(=O)(O)O)C(N)=O (stereo partly shown) [EEEL],1160

# Same assay, conditions: at the highest concentration tested of 1000 μM
row,inhibition of Naa80,Molecule
1,did not show detectable inhibition,CoA-Ac-MLGT-NH2 ({CoA-Ac′}-MLGT-NH2)

# Target: T1, Naa80
# Test: Naa80 substrate screening assay (peptide acetylation by purified Naa80)
# Format: biochemical
# Settings: Naa80 mediated acetylation of 24-mer peptide substrates
# Source text: In order to investigate the in vitro activity of Naa80 further, an enzyme activity screening assay on purified Naa80 was undertaken using a broad substrate library (including amino acids, nucleosides, coenzymes, amines, saccharides, vitamins, antioxidants and peptides) modified from Kuhn et al. (Kuhn et al. (2013) “Broad-substrate screen as a tool to identify substrates for bacterial Gcn5-related N-acetyltransferases with unknown substrate specificity”. Protein Science 22(2):222-230). Among all of the potential substrates tested, only the peptides with N-terminal sequence of MDEL24 (SEQ ID NO: 45), DDDI24 (SEQ ID NO: 41) and EEEI24 (SEQ ID NO: 40) were acetylated, as shown in the following table:
# The 24-mer substrate peptides differed in their 7 N-terminal amino acids while the 17 C-terminal residues (RWGRPVGRRRRPVRVYP, SEQ ID NO: 39) were kept constant: EEEI24 (EEEIAAL, SEQ ID NO: 40), DDDI24 (DDDIAAL, SEQ ID NO: 41), MDDD24 (MDDDIAA, SEQ ID NO: 42), SESS24 (SESSSKS, SEQ ID NO: 43), AVFA24 (AVFADLD, SEQ ID NO: 44), MDEL24 (MDELFPL, SEQ ID NO: 45), MELL24 (MELLSPP, SEQ ID NO: 46), MLGT24 (MLGTGPA, SEQ ID NO: 47), MTNK24 (MTNKSSL, SEQ ID NO: 48), MLGP24 (MLGPEGG, SEQ ID NO: 49), MAPL24 (MAPLDLD, SEQ ID NO: 50), MKKS24 (MKKSYSG, SEQ ID NO: 51).
# Both MDEL (p65, SEQ ID NO: 8) and MDDD24 (unprocessed β-actin, SEQ ID NO: 42) represent cellular NatB substrates.
row,Product formation,Molecule
1,1.14 (±3.35) μM,SESS24: 24-mer substrate peptide: N-terminal SESSSKS (SEQ ID NO: 43) plus constant RWGRPVGRRRRPVRVYP (SESSSKSRWGRPVGRRRRPVRVYP)
2,−0.96 (±0.84) μM,AVFA24: 24-mer substrate peptide: N-terminal AVFADLD (SEQ ID NO: 44) plus constant RWGRPVGRRRRPVRVYP (AVFADLDRWGRPVGRRRRPVRVYP)
3,42.4 (±0.95) μM,EEEI24: 24-mer substrate peptide: N-terminal EEEIAAL (SEQ ID NO: 40) plus constant RWGRPVGRRRRPVRVYP (EEEIAALRWGRPVGRRRRPVRVYP)
4,2.06 (±1.49) μM,MLGP24: 24-mer substrate peptide: N-terminal MLGPEGG (SEQ ID NO: 49) plus constant RWGRPVGRRRRPVRVYP (MLGPEGGRWGRPVGRRRRPVRVYP)

# Further lines, the molecule ahead of its results:
row,Molecule,Product formation
1,MELL24: 24-mer substrate peptide: N-terminal MELLSPP (SEQ ID NO: 46) plus constant RWGRPVGRRRRPVRVYP (MELLSPPRWGRPVGRRRRPVRVYP),2.15 (±0.40) μM
2,MKKS24: 24-mer substrate peptide: N-terminal MKKSYSG (SEQ ID NO: 51) plus constant RWGRPVGRRRRPVRVYP (MKKSYSGRWGRPVGRRRRPVRVYP),3.37 (±1.71) μM
3,DDDI24: 24-mer substrate peptide: N-terminal DDDIAAL (SEQ ID NO: 41) plus constant RWGRPVGRRRRPVRVYP (DDDIAALRWGRPVGRRRRPVRVYP),50.5 (±1.0) μM
4,MAPL24: 24-mer substrate peptide: N-terminal MAPLDLD (SEQ ID NO: 50) plus constant RWGRPVGRRRRPVRVYP (MAPLDLDRWGRPVGRRRRPVRVYP),2.28 (±0.61) μM
